Measured values as given in the supplement of paper PMC10724198.
± gives the standard deviation of the averaged measurements.

Tested on: Saccharomyces cerevisiae
Assay: protein stability index of tFT-peptide fusion (C-terminal peptide) (PSI (0-1 scale)); higher = more stable (slower turnover)
Conditions: genetic background: wild type; temperature: 30 C
Protocol: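 Multiplexed protein stability (MPS) profiling in S. cerevisiae. Random 12-aa peptides (tFT-X12 library) are fused to the C-terminus of a sfGFP-mCherry tandem fluorescent timer, after mCherry and a GGGS linker. Cells are FACS-sorted into 8 mCherry/sfGFP bins and deep-sequenced. The protein stability index (PSI) is the read-weighted bin average, scaled from 0 (unstable) to 1 (stable). Only peptides with >10 reads are reported; cells were grown at 30 °C in SC-His with glucose.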
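Further: PSI is a weighted mean of sequencing reads over stability bins, variants kept only with over 10 reads, mCherry proximal and sfGFP distal, peptide attached via GGGS linker.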

Sequence	protein stability index
PRRPPSSLWPYP	0.669 ± 0.044
TGQVLKYVVGSQ	0.711 ± 0.055
DGTLTAKVIETF	0.66 ± 0.058
ARLPLPGSPPFS	0.719 ± 0.0029
PPPPPPVPSRPL	0.644 ± 0.046
QRGGTWGALWEG	0.671 ± 0.02
VGWRWGRGRAVW	0.728 ± 0.067
PPLDPPPAPPPP	0.693 ± 0.08
LPLLLPFRTPDF	0.693 ± 0.015
GAGFCSGLRGAG	0.689 ± 0.088
FSGGPSTPPTWS	0.817 ± 0.01
LSVQFVSQHTRV	0.664 ± 0.024
TPPPRSFHRFPC	0.694 ± 0.043
GILYFPAGHHAG	0.627 ± 0.035
ASRRSGSYTGYR	0.672 ± 0.035
TKTKKKKNKKQE	0.719 ± 0.067
GGRRYSRPGQKH	0.661 ± 0.018
GLIVGLLGVSGF	0.591 ± 0.0062
DRGSLVASGGGG	0.713 ± 0.015
LAPPPAAPRFCL	0.652 ± 0.008
VGFFGMGVLPEG	0.741 ± 0.013
VVSLPITGTVTL	0.722 ± 0.029
VMYLSGCFHSQI	0.659 ± 0.059
GPPLSPPLLLLL	0.681 ± 0.046
PPPPPPPPPPSS	0.709 ± 0.13

Sequence	protein stability index
YRDSLLATNFFS	0.694 ± 0.056
PPPSHPLSPPRP	0.717 ± 0.24
KKKETKKENKKK	0.723 ± 0.034
PPSPHPPPSAPP	0.6411 ± 0.0028
DWGRRGGALAVI	0.641 ± 0.012
TPPHNRERPTVQ	0.657 ± 0.03
PCPFSSPPPLTH	0.763 ± 0.053
PRIWDLVDIGTL	0.735 ± 0.022
AGAGLGGVLGWW	0.671 ± 0.02
RPISPIAVGSVV	0.6747 ± 0.0013
PHQPRDGSFHGT	0.653 ± 0.011
LVAFKGNSMGRE	0.681 ± 0.019
AKKKEIQSTKHK	0.705 ± 0.0093
SPWMSKNGQSSD	0.622 ± 0.02
IKKNKKKKNERK	0.675 ± 0.025
LLALAPFWVRHK	0.68 ± 0.011
VLFLVGLCRDFA	0.553 ± 0.036
PPPPPSFSFPPT	0.706 ± 0.049
AQCAFIKAGVTW	0.686 ± 0.051
SPCLLPPPRSSP	0.737 ± 0.027
PAPHPRLTPIFL	0.749 ± 0.11
AYWWSLGRALGC	0.745 ± 0.065
RETGTSVEQVRT	0.68 ± 0.036
HEIRSQSFGLYV	0.687 ± 0.025
GGCCLWVGFQGG	0.703 ± 0.012

Sequence	protein stability index
WSSPCTGGVGKC	0.63 ± 0.0068
SRRSVVRPPCIG	0.656 ± 0.056
LPPPSAPFPLPP	0.743 ± 0.026
KRKKKRRKETLY	0.641 ± 0.037
GLSTPPSPALLR	0.748 ± 0.013
DITQSRIHMTNI	0.661 ± 0.055
LGPAPFSPPPPL	0.738 ± 0.041
GGGGGWAGENTR	0.715 ± 0.075
ITGPLAPYLGGF	0.688 ± 0.037
EPRPTPLSTPRH	0.671 ± 0.094
CPSLSALNHPLV	0.701 ± 0.021
KKKRKKNRKTNK	0.67 ± 0.02
GGAAWRRGVGGV	0.66 ± 0.025
MEGRVARAYSDE	0.688 ± 0.04
CSMSGPLIIIAR	0.58339 ± 0.00021
RGRMGLGSPGGG	0.639 ± 0.06
RQVERRARRDRV	0.671 ± 0.055
LAQLPPSLRFPP	0.72 ± 0.1
LKQHDSNESASR	0.6565 ± 0.001
PCPETPLLTRAA	0.651 ± 0.0094
PRPLASRITSPA	0.692 ± 0.036
SVCPQALNLPPH	0.723 ± 0.043
SSFSACPTKIII	0.686 ± 0.048
KIFRNKHENDLK	0.695 ± 0.026
KIKRKKSIHDKQ	0.693 ± 0.012

Sequence	protein stability index
KFKAYNIKKWKE	0.702 ± 0.03
DLFLTSSCPCLC	0.55106 ± 4.5e-05
ERTSSSWPPPAV	0.72 ± 0.09
PLPLPAPPPPSP	0.663 ± 0.01
VGCTSFWLAILR	0.56 ± 0.026
SGCWREVEVGFG	0.737 ± 0.059
CGLMIFSRSYRF	0.704 ± 0.033
PCTRIPPLDSPL	0.718 ± 0.058
CGRRGYIVRTFL	0.658 ± 0.071
WFVTVISSRFGS	0.6444 ± 0.0011
PRLPHPPPPLPL	0.669 ± 0.079
ALPRAPSRPPAR	0.67 ± 0.042
PHPPPPPPALTP	0.704 ± 0.037
EPAWVNDQKERS	0.832 ± 0.029
DSPLAGALTEVD	0.715 ± 0.04
AFTPGTTVYVSQ	0.699 ± 0.037
GRIPELVWWLDD	0.76 ± 0.037
QLSRHCYQPSGG	0.671 ± 0.0073
RVGSRRGVVCLL	0.7526 ± 0.0014
GLMRDKEMRMPK	0.68 ± 0.036
HSPSSLPRLRPQ	0.621 ± 0.044
QCFRYSVFVGRG	0.63 ± 0.019
PGFEPHLKLCAA	0.654 ± 0.042
PFLLDSMRALGL	0.737 ± 0.082
PPSPPPPLPPPA	0.6897 ± 0.0041

Sequence	protein stability index
FRVFLGHLITRK	0.727 ± 0.039
NTDSIKKQKKKK	0.675 ± 0.019
LSYSFGCEFLWL	0.674 ± 0.033
HQRGGPLPSSRR	0.739 ± 0.12
PSPPFPPPPPPE	0.717 ± 0.047
GVKMVHERHNRV	0.665 ± 0.057
GGGSGGVVGGIS	0.674 ± 0.018
SGPYPVGKQRSE	0.649 ± 0.05
RCNKETKNKDVL	0.7348 ± 0.0054
GALGCHPGLPSP	0.714 ± 0.025
DKSHRKNKKKRN	0.699 ± 0.0074
GTLPLGVRGGLK	0.657 ± 0.081
PSPSLPGRSASP	0.727 ± 0.0081
PDTVRALMRGYK	0.721 ± 0.016
PPPVPLPPPRSL	0.736 ± 0.055
GSVSWVLMWSWG	0.623 ± 0.059
EQRLQRATELGR	0.52028 ± 0.00016
PFARPPPSPSPR	0.707 ± 0.012
SFLGLDDEICLR	0.716 ± 0.044
LPSPTTNLFKPN	0.711 ± 0.0091
VRCWGRGSGVGD	0.666 ± 0.036
PRYKQSSFAFKK	0.669 ± 0.036
SHFPPPSTPPVL	0.713 ± 0.015
LTKPPHERREKS	0.635 ± 0.019
SRNKLNSIIIEK	0.608 ± 0.046

Sequence	protein stability index
KKNQNSKNRKEN	0.627 ± 0.036
RLETKNITRKHI	0.681 ± 0.018
VSWRGSFQGIYG	0.685 ± 0.043
RLVFSSCLNALF	0.724 ± 0.073
ASTLPTQPWPKG	0.729 ± 0.11
FLRISPPPPSPP	0.676 ± 0.077
GGGWCESRGDGA	0.655 ± 0.085
SPSSSPLSPFPL	0.713 ± 0.084
DIRKAEISANFC	0.59434 ± 2.4e-05
DPVVSQLSSVPA	0.656 ± 0.041
RLPAPPTVPLPP	0.6 ± 0.042
ANEAAYICKGNG	0.682 ± 0.039
SAPSAAPPRSHP	0.708 ± 0.025
GGGRWSAGVVEG	0.829 ± 0.1
DWLAFSYYFSVV	0.599 ± 0.041
DDTSIVRRMQSP	0.674 ± 0.014
HQVPSPPPPGPL	0.707 ± 0.2
GVAVVSGREGRG	0.7809 ± 0.0063
DGPGFNVCLRCK	0.708 ± 0.017
VRRRLRLFLMWG	0.588 ± 0.0052
VCTGYIAGGPVC	0.659 ± 0.05
